The source of these data is patent US12084513 (dated 2024).

Broadly, the Kd is the equilibrium constant for the complex coming apart. Low values mean tighter binding, high ones weaker binding.

Test [1] concerns the target T1, human C1s (human).
T1 chain: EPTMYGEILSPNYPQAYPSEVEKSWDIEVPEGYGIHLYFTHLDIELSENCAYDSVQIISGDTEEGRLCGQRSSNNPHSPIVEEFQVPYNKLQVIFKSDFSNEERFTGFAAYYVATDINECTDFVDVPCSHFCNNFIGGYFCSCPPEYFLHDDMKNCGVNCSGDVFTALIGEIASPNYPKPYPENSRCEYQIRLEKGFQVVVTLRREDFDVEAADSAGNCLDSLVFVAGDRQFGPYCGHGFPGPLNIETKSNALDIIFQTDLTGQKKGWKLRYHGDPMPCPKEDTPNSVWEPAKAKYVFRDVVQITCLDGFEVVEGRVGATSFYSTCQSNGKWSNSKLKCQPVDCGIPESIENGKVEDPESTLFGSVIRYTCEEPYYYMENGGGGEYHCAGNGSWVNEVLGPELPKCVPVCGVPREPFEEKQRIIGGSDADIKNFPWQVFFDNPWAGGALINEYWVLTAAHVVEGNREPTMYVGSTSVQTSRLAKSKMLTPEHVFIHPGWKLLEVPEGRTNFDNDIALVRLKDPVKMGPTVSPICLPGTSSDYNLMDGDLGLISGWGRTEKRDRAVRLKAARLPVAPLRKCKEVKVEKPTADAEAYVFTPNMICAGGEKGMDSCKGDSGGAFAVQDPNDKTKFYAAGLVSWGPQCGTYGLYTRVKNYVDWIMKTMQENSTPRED
Put plainly: SPR pH 5.8 37C.

The target of test [2] is T1, human C1s. Put plainly: SPR pH 7.4 37C.
In test [3] the target is T1, human C1s. The test is described as follows: SPR pH 5.8 low Ca 37C.
In test [4] the target is T1, human C1s. Put plainly: SPR pH 5.8 37C.
Test [5] has as its target T1, human C1s. Put plainly: SPR pH 7.4 37C.
The target in test [6] is T1, human C1s. Put plainly: SPR pH 7.4 37C.
Test [7] addresses T1, human C1s. The test is described as follows: SPR pH 7.4 37C.
Test [8] has as its target T1, human C1s. Put plainly: SPR pH 5.8 37C.
The target of test [9] is T1, human C1s. The test is described as follows: SPR pH 5.8 low Ca 37C, low response.
The target of test [10] is T1, human C1s. Put plainly: SPR pH 5.8 37C, low response.
Test [11] concerns the target T1, human C1s. The test is described as follows: SPR pH 7.4 37C.
Test [12] addresses T1, human C1s. Put plainly: SPR pH 5.8 37C.
Test [13] has as its target T1, human C1s. The test is described as follows: SPR pH 5.8 low Ca 37C, low response.
The target of test [14] is T1, human C1s. The test is described as follows: SPR pH 7.4 37C, low response.
The target in test [15] is T1, human C1s. The test is described as follows: SPR pH 5.8 37C, low response.

B1: IPN009VH2/IPN009VK3 (antibody, V domains shown)
VH: EVMLVESGGGLVKPGGSLRLSCAASGFTFSNYAMSWVRQAPGKGLEWVATISSGGSHTYYLDSVKGRFTISRDNSKDTLYLQMNSLRAEDTALYYCARLFTGYAMDYWGQGTLVTVSS
VL: QIVLTQSPATLSLSPGERATLSCTASSSVSSSYLHWYQQKPGKAPKLWIYSTSNLASGVPSRFSGSGSGTDYTLTISSLQPEDFATYYCHQYYRLPPITFGQGTKLEIK
As to B1, the Kd came out at 0.449 nM with human C1s [1]; 1.19 nM in the test with human C1s [2]; 3.37 nM with human C1s [3]; 0.164 nM in the test with human C1s [4]; 1.24 nM with human C1s [5]; 0.824 nM in the test with human C1s [6].

B2: IPN92H0033/IPN009VK3 (antibody, V domains shown)
VH: EVMLVESGGGLVKPGGSLRLSCAASGFTFSNYAMSWVRQAPGKGLEWVATISSGGSHTYYLDSVKGRFTISRDNSKDTLYLQMNSLRAEDTALYYCARLFTGHAMDYWGQGTLVTVSS
VL: QIVLTQSPATLSLSPGERATLSCTASSSVSSSYLHWYQQKPGKAPKLWIYSTSNLASGVPSRFSGSGSGTDYTLTISSLQPEDFATYYCHQYYRLPPITFGQGTKLEIK
In the case of B2, the Kd was determined as 0.931 nM in the test with human C1s [1]; 1.01 nM with human C1s [2]; 9.57 nM in the test with human C1s [3]; 0.515 nM in the test with human C1s [4]; 0.79 nM in the test with human C1s [6].

B3: IPN92H0288/IPN93L0058 (antibody, V domains shown)
VH: EVMLVESGGGLVKPGGSLRLSCAASGFTFSNYAMSWVRQAPGKGLEWVATISSGGSHTYELDSVDGRFTISRDNSKDTLYLQMNSLRAEDTALYYCARLFTKHAMDYWGQGTLVTVSS
VL: QIVLTQSPATLSLSPGERATLSCTASSEVSSSYLHWYQQKPGKAPKLWIYSTSNLASGVPSRFSGSGSGTDYTLTISSLQPEDFATYYCHQYYRLHPITFGQGTKLEIK
B3: the Kd with human C1s [1] turned out to be 40.1 nM; in the test with human C1s [7], 0.838 nM; with human C1s [8], 19.5 nM; with human C1s [2] it was 0.611 nM; in the test with human C1s [9], 7.96 nM.

B4: IPN92H0288/IPN93L0211 (antibody, V domains shown)
VH: EVMLVESGGGLVKPGGSLRLSCAASGFTFSNYAMSWVRQAPGKGLEWVATISSGGSHTYELDSVDGRFTISRDNSKDTLYLQMNSLRAEDTALYYCARLFTKHAMDYWGQGTLVTVSS
VL: QIVLTQSPATLSLSPGERATLSCTASSEVSESYLHWYQQKPGKAPKLWIYSTSNLASGVPSRFSGSGSGTDYTLTISSLQPEDFATYYCHQYYRLHPITFGQGTKLEIK
In the case of B4, the Kd in the test with human C1s [1] was found to be 83.1 nM; with human C1s [7], 1.67 nM; with human C1s [2] it was 1.11 nM; with human C1s [9], 10.4 nM; with human C1s [10] it was 16.5 nM.

B5: IPN92H0012/IPN009VK3 (antibody, V domains shown)
VH: EVMLVESGGGLVKPGGSLRLSCAASGFTFSNYAMSWVRQAPGKGLEWVATHSSGGSHTYYLDSVKGRFTISRDNSKDTLYLQMNSLRAEDTALYYCARLFTGYAMDYWGQGTLVTVSS
VL: QIVLTQSPATLSLSPGERATLSCTASSSVSSSYLHWYQQKPGKAPKLWIYSTSNLASGVPSRFSGSGSGTDYTLTISSLQPEDFATYYCHQYYRLPPITFGQGTKLEIK
B5 had a Kd with human C1s [5] of 10.5 nM.

B6: IPN92H0033/IPN93L0021 (antibody, V domains shown)
VH: EVMLVESGGGLVKPGGSLRLSCAASGFTFSNYAMSWVRQAPGKGLEWVATISSGGSHTYYLDSVKGRFTISRDNSKDTLYLQMNSLRAEDTALYYCARLFTGHAMDYWGQGTLVTVSS
VL: QIVLTQSPATLSLSPGERATLSCTASSSVSSSYLHWYQQKPGKAPKLWIYSTSNLASGVPSRFSGSGSGTDYTLTISSLQPEDFATYYCHQHYRLPPITFGQGTKLEIK
For B6, the dissociation constant (Kd) with human C1s [11] is 1.92 nM; in the test with human C1s [12], 5.01 nM; with human C1s [13], 7.59 nM.

B7: IPN009VH2/IPN93L0024 (antibody, V domains shown)
VH: EVMLVESGGGLVKPGGSLRLSCAASGFTFSNYAMSWVRQAPGKGLEWVATISSGGSHTYYLDSVKGRFTISRDNSKDTLYLQMNSLRAEDTALYYCARLFTGYAMDYWGQGTLVTVSS
VL: QIVLTQSPATLSLSPGERATLSCTASSSVSSSYLHWYQQKPGKAPKLWIYSTSNLASGVPSRFSGSGSGTDYTLTISSLQPEDFATYYCHQYYRLHPITFGQGTKLEIK
On to B7, for which the equilibrium dissociation constant (Kd) in the test with human C1s [1] was found to be 4.32 nM; in the test with human C1s [2] it was 3.4 nM; with human C1s [3] it was 22.3 nM; with human C1s [4], 3.87 nM; with human C1s [6], 2.46 nM.

B8: IPN92H0033/IPN93L0024 (antibody, V domains shown)
VH: EVMLVESGGGLVKPGGSLRLSCAASGFTFSNYAMSWVRQAPGKGLEWVATISSGGSHTYYLDSVKGRFTISRDNSKDTLYLQMNSLRAEDTALYYCARLFTGHAMDYWGQGTLVTVSS
VL: QIVLTQSPATLSLSPGERATLSCTASSSVSSSYLHWYQQKPGKAPKLWIYSTSNLASGVPSRFSGSGSGTDYTLTISSLQPEDFATYYCHQYYRLHPITFGQGTKLEIK
For the molecule B8, the Kd amounted to 11.9 nM with human C1s [1]; 2.9 nM with human C1s [11]; 8.66 nM with human C1s [12]; 2.51 nM in the test with human C1s [2]; 5.3 nM with human C1s [13].

B9: IPN92H0033/IPN93L0031 (antibody, V domains shown)
VH: EVMLVESGGGLVKPGGSLRLSCAASGFTFSNYAMSWVRQAPGKGLEWVATISSGGSHTYYLDSVKGRFTISRDNSKDTLYLQMNSLRAEDTALYYCARLFTGHAMDYWGQGTLVTVSS
VL: QIVLTQSPATLSLSPGERATLSCTASSSVSSSYLHWYQQKPGKAPKLWIYSTSNLASGVPSRFSGSGSGTDYTLTISSLQPEDFATYYCHQYHRHHPITFGQGTKLEIK
For the molecule B9, the Kd with human C1s [14] came out at 3.59 nM; with human C1s [13] it was 13.9 nM; with human C1s [15], 2.59 nM.

B10: IPN009VH2/IPN93L0031 (antibody, V domains shown)
VH: EVMLVESGGGLVKPGGSLRLSCAASGFTFSNYAMSWVRQAPGKGLEWVATISSGGSHTYYLDSVKGRFTISRDNSKDTLYLQMNSLRAEDTALYYCARLFTGYAMDYWGQGTLVTVSS
VL: QIVLTQSPATLSLSPGERATLSCTASSSVSSSYLHWYQQKPGKAPKLWIYSTSNLASGVPSRFSGSGSGTDYTLTISSLQPEDFATYYCHQYHRHHPITFGQGTKLEIK
With B10, the values for the Kd with human C1s [14], with human C1s [13] and with human C1s [15] were 0.168 nM, 4960 nM and 23.9 nM, respectively.

B11: IPN009VH2/IPN93L0021 (antibody, V domains shown)
VH: EVMLVESGGGLVKPGGSLRLSCAASGFTFSNYAMSWVRQAPGKGLEWVATISSGGSHTYYLDSVKGRFTISRDNSKDTLYLQMNSLRAEDTALYYCARLFTGYAMDYWGQGTLVTVSS
VL: QIVLTQSPATLSLSPGERATLSCTASSSVSSSYLHWYQQKPGKAPKLWIYSTSNLASGVPSRFSGSGSGTDYTLTISSLQPEDFATYYCHQHYRLPPITFGQGTKLEIK
As for B11, the equilibrium dissociation constant (Kd) is 4.34 nM in the test with human C1s [1]; 2.92 nM in the test with human C1s [2]; 9.54 nM in the test with human C1s [3]; 3.21 nM in the test with human C1s [4]; 2.68 nM in the test with human C1s [6].

B12: IPN92H0307/IPN93L0058 (antibody, V domains shown)
VH: EVMLVESGGGLVKPGGSLRLSCAASGFEFENYAMSWVRQAPGKGLEWVATISSGGSHTYELDSVDGRFTISRDNSKDTLYLQMNSLRAEDTALYYCARLFTKHAMDYWGQGTLVTVSS
VL: QIVLTQSPATLSLSPGERATLSCTASSEVSSSYLHWYQQKPGKAPKLWIYSTSNLASGVPSRFSGSGSGTDYTLTISSLQPEDFATYYCHQYYRLHPITFGQGTKLEIK
B12: the Kd with human C1s [1] came to 38.1 nM; with human C1s [7], 1.93 nM; with human C1s [8], 19.5 nM; with human C1s [2], 1.34 nM; with human C1s [9], 4.95 nM.
